This is an account of results in paper PMC3410491.

Assay [1] addresses Chara myosin heavy chain (Chara corallina (Chara australis) (endogenous in internodal cells)). In words: SEC; partially purified Chara myosin on Superdex 200HR in 50 mM Tris-HCl pH 8.0, 2 mM MgCl2, 1 mM EGTA, 4 mM ATP, 1 mM DTT; peak fraction No. 20 concentrated and run on SDS-PAGE, stained with coomassie brilliant blue; molar ratios roughly estimated.
Assay [2] has the same target.
Assay [3] has the same target. The source holds these as a separate data set.

Take “18 kDa polypeptide of Chara myosin (natural protein)”: the stoichiometry N (molar ratio to the heavy chain) in assay [1] is 2.5.

As to “20 kDa polypeptide of Chara myosin (natural protein)”, the stoichiometry N (molar ratio to the heavy chain) in assay [1] is 0.7.

Take “bovine calmodulin (from UniProt P62157 1-149) (natural protein)”: in assay [2], the sliding velocity of F-actin on Chara myosin in the in vitro motility assay; increase over the standard buffer on adding 0.1 mM Ca++ and 0.1 mg/ml calmodulin; reversible on washing out came out at 35%; the sliding velocity of F-actin on Chara myosin in the in vitro motility assay; increase over the standard buffer on adding 0.1 mg/ml calmodulin is 24%. In addition, in assay [3], the actin activated ATPase of column purified Chara myosin; increase on adding both Ca++ and calmodulin came out at 91%; the actin activated ATPase of column purified Chara myosin; increase on adding calmodulin is 24%.
